We go through four molecules from PMC8351461 (Frontiers in Immunology, 2021).

What all share (assay): pull-down
Common to all, as to conditions: both partners purified

Experiment [1] concerns the target T1, SARS-CoV-2 N protein C-terminal intrinsically disordered region (residues 365-419) (SARS-CoV-2, reference Wuhan-Hu-1 …, UniProt P0DTC9).
T1 construct: also called C-IDR

In experiment [2] the target is T2, SARS-CoV-2 Nucleocapsid (N) protein, full-length (SARS-CoV-2, reference Wuhan-Hu-1 …, UniProt P0DTC9).
T2 construct: also called full-length N; FL

Experiment [3] concerns the target T3, SARS-CoV-2 N protein RNA-binding domain (residues 49-174) (SARS-CoV-2, UniProt P0DTC9).
T3 construct: also called N^49-174; N^RBD

B1: single-domain antibody sdAb-N3 (VHH)
VHH: KVKLQQSGGGLVQTGGSLRLSCAPSGRTFSVNAMGWYRQAPGKQREPVALISTGGSTNYADSVKGRFTISRDNVKNTVYLQMNTLKPEDTAVYYCYTERWKPRGIERDWGQGTQVTVSS
notes: not shown: His6, C-terminal, kept
For the molecule B1, the binding result in experiment [1] and in experiment [2] was “binds” throughout.

B2: single-domain antibody sdAb-B6 (VHH)
VHH: EVQLQASGGGLVQAGDSLRLSCVAVSGRTISTFAMGWFRQAPGKEREFVATINWSGSSARYADPVEGRFTISRDDAKNTVYLEMSSLKPGDSAVYYCASGRYLGGITSYSQGDFAPWGQGTQVTVSS
notes: as for B1
Regarding B2, in experiment [2], the binding result is on record as “binds”.

B3: single-domain antibody sdAb-C2 (VHH)
VHH: EVQLQASGGGLVRPGGSLRLSCAASGFTFSSYAMMWVRQAPGKGLEWVSAINGGGGSTSYADSVKGRFTISRDNAKNTLYLQMNSLKPEDTAVYYCAKYQAAVHQEKEDYWGQGTQVTVSS
notes: as for B1
B3: the binding result in experiment [2] and in experiment [3] was “binds” throughout.

B4: single-domain antibody sdAb-E2 (VHH)
VHH: EVQLQASGGGLVQAGGSLRLSCAASGRTDSTQHMAWFRQAPGKEREFVTAIQWRGGGTSYTDSVKGRFTISRDNAKNTVYLEMNSLKPEDTAVYYCATNTRWTYFSPTVPDRYDYWGQGTQVTVSS
notes: as for B1
Take B4: the binding result in experiment [2] is reported as “binds”.
